Here are results for four molecules from patent publication EP4803150A2 (Lyvgen Biopharma Holdings Limited, dated 2026).

What is called EC50 is the concentration needed to bring the measured effect to its halfway point.

T1: CD3 (human)
T1 chain: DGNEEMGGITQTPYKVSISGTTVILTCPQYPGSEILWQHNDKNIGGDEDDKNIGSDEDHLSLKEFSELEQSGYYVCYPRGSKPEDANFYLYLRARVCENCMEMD

B1: Ly1963 (multi-specific antibody)
chain 1: QVQLVQSGAEVKKPGASVKVSCKASGYTFTSYVMHWVRQKPGQGLEWIGYINPYNEGTESTDKFKGRATMTSDKSTSTVYMELSSLRSEDTAVYYCASIYYGYEGTYFGVWGQGTLVTVSSASTKGPSVFPLAPSSKSTSGGTAALGCLVKDYFPEPVTVSWNSGALTSGVHTFPAVLQSSGLYSLSSVVTVPSSSLGTQTYICNVNHKPSNTKVDKKVEPKSCGGGGSGGGGSGGGGSGGGGSEVQLVESGGGLVQPGGSLRLSCAASGFTFSTYAMNWVRQAPGKGLEWVGRIRSKYNNYATYYADSVKGRFTISRDDSKNSLYLQMNSLKTEDTAVYYCVRHGNFGNSYVSWFAYWGQGTLVTVSSGGGGSDKTHTCPPCPAPEAAGPSVFLFPPKPKDTLMISRTPEVTCVVVDVSHEDPEVKFNWYVDGVEVHNAKTKPREEQYNSTYRVVSVLTVLHQDWLNGKEYKCKVSNKALPAPIEKTISKAKGQPREPQVYTLPPSREEMTKNQVSLWCLVKGFYPSDIAVEWESNGQPENNYKTTPPVLDSDGSFFLYSKLTVDKSRWQQGNVFSCSVMHEALHNHYTQKSLSLSPGGGGGSGGGGSGGGGSGGGGSQVQLVQSGAEVKKPGASVKVSCKASGYTFAGFEMHWVRQAPGQGLEWMGAIDPKTGGTDYNQKFKDRVTMTRDTSISTAYMELSRLRSDDTAVYYCARDLGYFDVWGQGTLVTVSS
chain 2: QVQLVQSGAEVKKPGASVKVSCKASGYTFTSYVMHWVRQKPGQGLEWIGYINPYNEGTESTDKFKGRATMTSDKSTSTVYMELSSLRSEDTAVYYCASIYYGYEGTYFGVWGQGTLVTVSSASTKGPSVFPLAPSSKSTSGGTAALGCLVKDYFPEPVTVSWNSGALTSGVHTFPAVLQSSGLYSLSSVVTVPSSSLGTQTYICNVNHKPSNTKVDKKVEPKSCGGGGSGGGGSGGGGSGGGGSQAVVTQEPSLTVSPGGTVTLTCRSSTGAVTTSNYANWVQQKPGQAPRGLIGGTNKRAPWTPARFSGSLLGGKAALTITGAQAEDEADYYCALWYSNLWVFGGGTKLTVLGGGGSDKTHTCPPCPAPEAAGPSVFLFPPKPKDTLMISRTPEVTCVVVDVSHEDPEVKFNWYVDGVEVHNAKTKPREEQYNSTYRVVSVLTVLHQDWLNGKEYKCKVSNKALPAPIEKTISKAKGQPREPQVYTLPPSREEMTKNQVSLSCAVKGFYPSDIAVEWESNGQPENNYKTTPPVLDSDGSFFLVSKLTVDKSRWQQGNVFSCSVMHEALHNHYTQKSLSLSPGGGGGSGGGGSGGGGSGGGGSDIQMTQSPSSLSASVGDRVTITCRASQDIRSNLNWYQQKPGGAVKLLIYYTSRLHSGVPSRFSGSGSGTDYTLTISSLQPEDFATYFCQQSEKLPRTFGGGTKVEIR
chain 3: EIVLTQSPATLSLSPGERATLSCRASSSVSYMHWYQQKPGQAPRPWIYATSNLASGIPARFSGSRSGTDYTLTISSLEPEDFAVYYCQQWSSNTLTFGGGTKVEIKRTVAAPSVFIFPPSDEQLKSGTASVVCLLNNFYPREAKVQWKVDNALQSGNSQESVTEQDSKDSTYSLSSTLTLSKADYEKHKVYACEVTHQGLSSPVTKSFNRGEC
notes: Trispecific B7H3/CD3/CD137
B2: Ly1965 (bispecific antibody)
chain 1: QVQLVQSGAEVKKPGASVKVSCKASGYTFTSYVMHWVRQKPGQGLEWIGYINPYNEGTESTDKFKGRATMTSDKSTSTVYMELSSLRSEDTAVYYCASIYYGYEGTYFGVWGQGTLVTVSSASTKGPSVFPLAPSSKSTSGGTAALGCLVKDYFPEPVTVSWNSGALTSGVHTFPAVLQSSGLYSLSSVVTVPSSSLGTQTYICNVNHKPSNTKVDKKVEPKSCGGGGSGGGGSGGGGSGGGGSEVQLVESGGGLVQPGGSLRLSCAASGFTFSTYAMNWVRQAPGKGLEWVGRIRSKYNNYATYYADSVKGRFTISRDDSKNSLYLQMNSLKTEDTAVYYCVRHGNFGNSYVSWFAYWGQGTLVTVSSGGGGSDKTHTCPPCPAPEAAGPSVFLFPPKPKDTLMISRTPEVTCVVVDVSHEDPEVKFNWYVDGVEVHNAKTKPREEQYNSTYRVVSVLTVLHQDWLNGKEYKCKVSNKALPAPIEKTISKAKGQPREPQVYTLPPSREEMTKNQVSLWCLVKGFYPSDIAVEWESNGQPENNYKTTPPVLDSDGSFFLYSKLTVDKSRWQQGNVFSCSVMHEALHNHYTQKSLSLSPG
chain 2: QVQLVQSGAEVKKPGASVKVSCKASGYTFTSYVMHWVRQKPGQGLEWIGYINPYNEGTESTDKFKGRATMTSDKSTSTVYMELSSLRSEDTAVYYCASIYYGYEGTYFGVWGQGTLVTVSSASTKGPSVFPLAPSSKSTSGGTAALGCLVKDYFPEPVTVSWNSGALTSGVHTFPAVLQSSGLYSLSSVVTVPSSSLGTQTYICNVNHKPSNTKVDKKVEPKSCGGGGSGGGGSGGGGSGGGGSQAVVTQEPSLTVSPGGTVTLTCRSSTGAVTTSNYANWVQQKPGQAPRGLIGGTNKRAPWTPARFSGSLLGGKAALTITGAQAEDEADYYCALWYSNLWVFGGGTKLTVLGGGGSDKTHTCPPCPAPEAAGPSVFLFPPKPKDTLMISRTPEVTCVVVDVSHEDPEVKFNWYVDGVEVHNAKTKPREEQYNSTYRVVSVLTVLHQDWLNGKEYKCKVSNKALPAPIEKTISKAKGQPREPQVYTLPPSREEMTKNQVSLSCAVKGFYPSDIAVEWESNGQPENNYKTTPPVLDSDGSFFLVSKLTVDKSRWQQGNVFSCSVMHEALHNRFTQKSLSLSPG
chain 3: B1 chain 3
notes: B7H3/CD3
B3: Ly2128 (multi-specific antibody)
chain 1: QVQLVQSGAEVKKPGASVKVSCKASGYTFTSYVMHWVRQKPGQGLEWIGYINPYNEGTESTDKFKGRATMTSDKSTSTVYMELSSLRSEDTAVYYCASIYYGYEGTYFGVWGQGTLVTVSSASTKGPSVFPLAPSSKSTSGGTAALGCLVKDYFPEPVTVSWNSGALTSGVHTFPAVLQSSGLYSLSSVVTVPSSSLGTQTYICNVNHKPSNTKVDKKVEPKSCGGGGSGGGGSGGGGSGGGGSEVQLVESGGGLVQPGGSLRLSCAASGFTFSTYAMNWVRQAPGKGLEWVGRIRSKYNNYATYYADSVKGRFTISRDDSKNSLYLQMNSLKTEDTAVYYCVRHGNFGNSYVSWFAYWGQGTLVTVSSGGGGSDKTHTCPPCPAPEAAGPSVFLFPPKPKDTLMISRTPEVTCVVVDVSHEDPEVKFNWYVDGVEVHNAKTKPREEQYNSTYRVVSVLTVLHQDWLNGKEYKCKVSNKALPAPIEKTISKAKGQPREPQVYTLPPSREEMTKNQVSLWCLVKGFYPSDIAVEWESNGQPENNYKTTPPVLDSDGSFFLYSKLTVDKSRWQQGNVFSCSVMHEALHNHYTQKSLSLSPGGGGGSGGGGSGGGGSGGGGSQVQLVQSGAEVKKPGASVKVSCKASGYTFTSYYIHWVRQAPGQGLEWIGCIYPGNVNTNYNEKFKDRATLTVDTSISTAYMELSRLRSDDTAVYFCTRSHYGLDWNFDVWGQGTTVTVSS
chain 2: not shown
chain 3: B1 chain 3
notes: Tri-specific B7H3/CD3/CD28
B4: Anti-CD3 Ly305 (antibody, V domains shown)
VH: EVQLVESGGGLVQPGGSLRLSCAASGFTFSTYAMNWVRQAPGKGLEWVGRIRSKYNNYATYYADSVKGRFTISRDDSKNSLYLQMNSLKTEDTAVYYCVRHGNFGNSYVSWFAYWGQGTLVTVSS
VL: QAVVTQEPSLTVSPGGTVTLTCRSSTGAVTTSNYANWVQQKPGQAPRGLIGGTNKRAPWTPARFSGSLLGGKAALTITGAQAEDEADYYCALWYSNLWVFGGGTKLTVL
notes: Parent mAb; also called CD3 mAb Ly305

The target of the assay is T1, CD3. The assay is described as follows: CD3 binding as in Example 2 (ELISA or FCM). On the technique in general: ELISA stands for enzyme-linked immunosorbent assay.
In the case of B1, the response was half-maximal at 0.74 µg/mL (EC50). With B2, a half-maximal effect (EC50) was put at 0.419 µg/mL.

B3 came in with an EC50 of 1.08 µg/mL. Then B4, with 0.03 µg/mL.
